Assay [1] has as its target Sec39 (residues 1–709) (S. cerevisiae) (UniProt Q12745).
The target in assay [2] is Dsl1 (residues 1–754) (S. cerevisiae) (UniProt P53847).
For assay [3], the target named is T1, Sec39 (residues 1–709) (S. cerevisiae, UniProt Q12745 1-709).
T1 sequence (looked up): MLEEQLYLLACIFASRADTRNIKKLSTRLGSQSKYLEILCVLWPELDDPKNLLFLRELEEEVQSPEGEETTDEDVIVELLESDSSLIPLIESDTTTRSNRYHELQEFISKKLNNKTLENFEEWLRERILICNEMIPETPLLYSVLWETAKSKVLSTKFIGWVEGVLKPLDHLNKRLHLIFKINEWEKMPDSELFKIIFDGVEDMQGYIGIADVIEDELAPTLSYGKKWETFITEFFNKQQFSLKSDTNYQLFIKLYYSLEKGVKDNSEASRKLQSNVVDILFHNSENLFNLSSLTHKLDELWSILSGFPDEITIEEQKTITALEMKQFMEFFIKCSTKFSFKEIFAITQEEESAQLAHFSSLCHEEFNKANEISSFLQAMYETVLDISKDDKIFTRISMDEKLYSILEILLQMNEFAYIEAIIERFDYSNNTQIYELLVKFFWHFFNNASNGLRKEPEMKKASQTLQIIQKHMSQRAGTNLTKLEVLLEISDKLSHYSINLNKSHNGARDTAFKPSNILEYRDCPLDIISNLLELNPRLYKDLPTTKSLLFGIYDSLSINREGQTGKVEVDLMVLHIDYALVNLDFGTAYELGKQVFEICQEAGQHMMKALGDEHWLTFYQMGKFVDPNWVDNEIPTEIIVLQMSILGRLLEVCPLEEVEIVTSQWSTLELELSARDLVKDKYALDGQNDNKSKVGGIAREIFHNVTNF
Description: SEC.

Assay [4] has as its target T1, Sec39 (residues 1–709). Description: co-purification.
The target of the next assay is T2, His-tagged Sec39 (S. cerevisiae, UniProt Q12745 1-709).
T2 sequence (looked up): T1 sequence (looked up)
Description: co-purification.

The target of a further assay is T3, Sec39 residues 1–392 (S. cerevisiae, UniProt Q12745 1-392).
T3 sequence (looked up): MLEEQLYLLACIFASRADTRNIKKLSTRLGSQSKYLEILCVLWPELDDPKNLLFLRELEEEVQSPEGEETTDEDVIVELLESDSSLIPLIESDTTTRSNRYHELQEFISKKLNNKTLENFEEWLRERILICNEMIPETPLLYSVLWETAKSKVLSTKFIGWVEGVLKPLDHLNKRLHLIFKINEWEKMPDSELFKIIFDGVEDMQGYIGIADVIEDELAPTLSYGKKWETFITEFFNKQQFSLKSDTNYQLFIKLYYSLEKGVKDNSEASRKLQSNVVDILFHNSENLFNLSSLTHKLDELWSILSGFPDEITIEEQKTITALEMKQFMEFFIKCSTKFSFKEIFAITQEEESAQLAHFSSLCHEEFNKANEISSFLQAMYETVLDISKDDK
Description: SEC. For orientation: Size exclusion chromatography separates by hydrodynamic size, large species first.

A word on the Kd: it is the constant that tells how readily two partners part at equilibrium. In assay [1], “Dsl1 (residues 1–754) (from UniProt P53847 1-754) (natural protein)” yielded a Kd of 10 nM.

For “Tip20 (residues 1–701) (from UniProt P33891 1-701) (natural protein)”, in assay [2], the equilibrium dissociation constant (Kd) stood at 100 nM.

As for MAETSNDPFLSYVLSSKQLTNLNRLRRKAVTKQLG (peptide, UniProt P53146 1-35, looked up) [N-terminal peptide of Use1 (residues 1–35)], the binding result with Sec39 (residues 1–709) [3] is reported as “binds”.

B1: Use1 cytoplasmic domain (residues 1–212), TF tag removed (domain or fragment, S. cerevisiae, UniProt P53146 1-212, looked up)
chain: MAETSNDPFLSYVLSSKQLTNLNRLRRKAVTKQLGSSDDNKVSEEFLRYQHTYQREAFEYLQTKHDAHKIMESQYEQYQSSSKTRRYSIDLDSVDAVDTESQTEYPNEEFIDRNEDSEAVMELRKRLLGKGQNKGLGYETTKSVDRQIEDQDTLQQDLIQDMSKLVGSLKQGAVAFQSALDEDKQVLGAAEIGIQVASQGLMDVSGKLRKYD
For B1, the binding result with Sec39 (residues 1–709) [4] and with His-tagged Sec39 was “binds” each time.

B2: TF-Use1 (residues 1–212 fused to trigger factor) (domain or fragment, S. cerevisiae, UniProt P53146 1-212, looked up)
chain: B1 chain
Regarding B2, the binding result with Sec39 residues 1–392 is “binds”.

The values above are taken from article PMC2806190 (Cell, 2009).
